{
  "source": "patent US20230151373A1",
  "about": "“CHIMERIC POLYPEPTIDE FOR REGULATING IMMUNE CELLS” (STICHTING HET NEDERLANDS KANKER INSTITUUT-ANTONI VAN …, priority 2019, published 2023)",
  "target": "CD3 ζ chain (phosphorylated ITAMs) of the TCR complex (human) (UniProt P20963)",
  "sequence (P20963 22-164, one chain of several)": "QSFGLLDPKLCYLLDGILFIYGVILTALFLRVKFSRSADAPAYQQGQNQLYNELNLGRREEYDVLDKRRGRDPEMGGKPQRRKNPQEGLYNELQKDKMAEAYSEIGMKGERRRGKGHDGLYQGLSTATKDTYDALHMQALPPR",
  "experiment": "cell-based or functional assay",
  "data": [
    {"substance": "Zap70 2×SH2 domains-PD1 tail fusion protein (from UniProt P43403 1-264; Q15116 192-288)", "values": [
      {"measurement": "reduction in percentage responding cells (IFNγ), CDK4 TCR T cells co-cultured with 10 nM peptide loaded T2 cells, relative to vector control", "value": 104, "unit": "fold"},
      {"measurement": "reduction in percentage responding cells (IL-2), CDK4 TCR T cells co-cultured with 10 nM peptide loaded T2 cells, relative to vector control", "value": 110, "unit": "fold"},
      {"measurement": "reduction in percentage responding cells (TNFα), CDK4 TCR T cells co-cultured with 10 nM peptide loaded T2 cells, relative to vector control", "value": 81, "unit": "fold"},
      {"measurement": "reduction in percentage responding cells (cell surface LAMP1), CDK4 TCR T cells co-cultured with 10 nM peptide loaded T2 cells, relative to vector control", "value": 40, "unit": "fold"}
    ]}
  ]
}
